Measurements published in patent US20220168396A1, “MULTI-RECEPTOR AGONIST AND MEDICAL USE THEREOF” (published 2022).
Read-outs that look alike come from different tables or passages of the source. Numbered stars: 1 amine (or outer) side, 2 acyl side, 3 side chain; on linkers, the order of the positions; unused ones are H or OH. Square brackets hold non-standard residues; d marks the D form. Side chains are listed from the residue outwards. Ends that are not written are not given here. γGlu = O=C(O)[C@H](CCC(=O)[*:2])N[*:1]; AEEA = NCCOCCOCC(=O)O; Aib = CC(C)(N)C(=O)O

T1: human glucose-dependent insulinotropic peptide receptor (human, UniProt P48546)
T1 sequence: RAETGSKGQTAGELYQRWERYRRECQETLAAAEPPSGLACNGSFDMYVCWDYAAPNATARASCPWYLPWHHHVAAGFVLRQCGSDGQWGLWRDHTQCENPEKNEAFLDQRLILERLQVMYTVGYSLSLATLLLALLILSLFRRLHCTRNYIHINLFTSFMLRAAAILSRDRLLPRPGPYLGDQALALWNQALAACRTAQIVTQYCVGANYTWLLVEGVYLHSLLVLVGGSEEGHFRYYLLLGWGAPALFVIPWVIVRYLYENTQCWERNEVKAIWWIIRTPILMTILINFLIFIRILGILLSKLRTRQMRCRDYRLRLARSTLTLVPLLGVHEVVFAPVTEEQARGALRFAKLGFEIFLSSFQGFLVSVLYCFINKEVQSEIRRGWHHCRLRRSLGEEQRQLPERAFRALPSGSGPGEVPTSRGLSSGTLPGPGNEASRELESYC


Experiments:
Assay in all cases: cell-based or functional assay
[1] = target: T2, human glucagon-like peptide-1 receptor (human, UniProt P43220)
[2] = target: T1, human glucose-dependent insulinotropic …
[3] = target: T2, human glucagon-like peptide-1 receptor; remark: listed apart in the source
[4] = target: T1, human glucose-dependent insulinotropic …; remark: listed apart in the source

Binder | Activity for human GLP-1R (EC50 nM), cAMP HTRF [1] [nM] | Activity for human GIPR (EC50 nM), cAMP HTRF [2] [nM] | Activity for human GLP-1R (EC50 nM), cAMP HTRF [3] [nM] | Activity for human GIPR (EC50 nM), cAMP HTRF [4] [nM]
Y[Aib]EGTFTSDYSIYLEKIAAQEFVNWLLAGGPSSGAPPPSK([AEEA-AEEA-γGlu-C20‑OH])-NH2 [Compound No. 74] | 0.068 | 0.046 | – | –
H-Y[Aib]EGTFTSDYSIYLEKEAAKEFVNWLLAGGPSSGAPPPS-NH2 (not fully specified (residue 20); printed as H-YAibEGTFTSDYSIYLEKEAAK(OEG-OEG-yGlu-C18-OH)EFVNWLLAG / GPSSGAPPPS-NH2) [Compound No. 27] | 0.12 | 0.11 | – | –
Y[Aib]EGTFTSDYSIYLEEIAAKEFVNWLLAGGPSSGAPPPS-NH2 (N-terminus assumed; SMILES CC[C@H](C)[C@H](NC(=O)[C@H](CCC(=O)O)NC(=O)[C@H](CCC(=O)O)NC(=O)[C@H](CC(C)C)NC(=O)[C@H](Cc1ccc(O)cc1)NC(=O)[C@@H](NC(=O)[C@H](CO)NC(=O)[C@H](Cc1ccc(O)cc1)NC(=O)[C@H](CC(=O)O)NC(=O)[C@H](CO)NC(=O)[C@@H](NC(=O)[C@H](Cc1ccccc1)NC(=O)[C@@H](NC(=O)CNC(=O)[C@H](CCC(=O)O)NC(=O)C(C)(C)NC(=O)[C@@H](N)Cc1ccc(O)cc1)[C@@H](C)O)[C@@H](C)O)[C@@H](C)CC)C(=O)N[C@@H](C)C(=O)N[C@@H](C)C(=O)N[C@@H](CCCCN)C(=O)N[C@@H](CCC(=O)O)C(=O)N[C@@H](Cc1ccccc1)C(=O)N[C@H](C(=O)N[C@@H](CC(N)=O)C(=O)N[C@@H](Cc1c[nH]c2ccccc12)C(=O)N[C@@H](CC(C)C)C(=O)N[C@@H](CC(C)C)C(=O)N[C@@H](C)C(=O)NCC(=O)NCC(=O)N1CCC[C@H]1C(=O)N[C@@H](CO)C(=O)N[C@@H](CO)C(=O)NCC(=O)N[C@@H](C)C(=O)N1CCC[C@H]1C(=O)N1CCC[C@H]1C(=O)N1CCC[C@H]1C(=O)N[C@@H](CO)C(N)=O)C(C)C) [Compound No. 72] | – | – | 0.017 | 0.03
H-Y[Aib]EGTFTSDYSIYLEKIAAQEFVNWLLAGKPSSGAPPPS-NH2 (not fully specified (residue 30); printed as H-YAibEGTFTSDYSIYLEKIAAQEFVNWLLAGK(OEG-OEG-yGlu-C18-OH) / PSSGAPPPS-NH2) [Compound No. 29] | 0.24 | 0.015 | – | –
H-Y[Aib]EGTFTSDYSIYLEKIAAKEFVNWLLAGGPSSGAPPPS-NH2 (not fully specified (residue 20); printed as H-YAibEGTFTSDYSIYLEKIAAK(OEG-OEG-yGlu-C18-OH)EFVNWLLAG / GPSSGAPPPS-NH2) [Compound No. 30] | 0.058 | 0.021 | – | –
H-Y[Aib]EGTFTSDYSIYLEKIAAQEFVNWLLAGGPSSGAPPPSK-NH2 (not fully specified (residue 40); printed as H-YAibEGTFTSDYSIYLEKIAAQEFVNWLLAGGPSSGAPPPSK / (OEG-OEG-yGlu-C18-OH)-NH2) [Compound No. 28] | 0.074 | 0.02 | – | –
Y[Aib]EGTFTSDYSIYLDKIAAQEFVNWLLAGGPSSGAPPPSK([AEEA-AEEA-γGlu-C18‑OH])-NH2 [Compound No. 62] | 0.32 | 0.045 | – | –
H-Y[Aib]EGTFTSDYSIYLEKEAAKEFVNWLLAGGPSSGAPPPSK-NH2 (not fully specified (residue 40); printed as H-YAibEGTFTSDYSIYLEKEAAKEFVNWLLAGGPSSGAPPPSK / (OEG-OEG-yGlu-C18-OH)-NH2) [Compound No. 25] | 0.031 | 0.059 | – | –
Y[Aib]EGTFTSDYSIYLEKIAAQEFVQWLLAGGPSSGAPPPS-NH2 (N-terminus assumed; SMILES CC[C@H](C)[C@H](NC(=O)[C@H](CCCCN)NC(=O)[C@H](CCC(=O)O)NC(=O)[C@H](CC(C)C)NC(=O)[C@H](Cc1ccc(O)cc1)NC(=O)[C@@H](NC(=O)[C@H](CO)NC(=O)[C@H](Cc1ccc(O)cc1)NC(=O)[C@H](CC(=O)O)NC(=O)[C@H](CO)NC(=O)[C@@H](NC(=O)[C@H](Cc1ccccc1)NC(=O)[C@@H](NC(=O)CNC(=O)[C@H](CCC(=O)O)NC(=O)C(C)(C)NC(=O)[C@@H](N)Cc1ccc(O)cc1)[C@@H](C)O)[C@@H](C)O)[C@@H](C)CC)C(=O)N[C@@H](C)C(=O)N[C@@H](C)C(=O)N[C@@H](CCC(N)=O)C(=O)N[C@@H](CCC(=O)O)C(=O)N[C@@H](Cc1ccccc1)C(=O)N[C@H](C(=O)N[C@@H](CCC(N)=O)C(=O)N[C@@H](Cc1c[nH]c2ccccc12)C(=O)N[C@@H](CC(C)C)C(=O)N[C@@H](CC(C)C)C(=O)N[C@@H](C)C(=O)NCC(=O)NCC(=O)N1CCC[C@H]1C(=O)N[C@@H](CO)C(=O)N[C@@H](CO)C(=O)NCC(=O)N[C@@H](C)C(=O)N1CCC[C@H]1C(=O)N1CCC[C@H]1C(=O)N1CCC[C@H]1C(=O)N[C@@H](CO)C(N)=O)C(C)C) [Compound No. 78] | – | – | 0.008 | 0.012
Y[Aib]EGTFTSDYSIYLEKIAAK([AEEA-AEEA-γGlu-C20‑OH])EFVNWLLAGGPSSGAPPPS-NH2 [Compound No. 75] | 0.2 | 0.16 | – | –
Y[Aib]EGTFTSDYSIYLEKIAAQEFVNWLIAGGPSSGAPPPS-NH2 (N-terminus assumed; SMILES CC[C@H](C)[C@H](NC(=O)[C@H](CCCCN)NC(=O)[C@H](CCC(=O)O)NC(=O)[C@H](CC(C)C)NC(=O)[C@H](Cc1ccc(O)cc1)NC(=O)[C@@H](NC(=O)[C@H](CO)NC(=O)[C@H](Cc1ccc(O)cc1)NC(=O)[C@H](CC(=O)O)NC(=O)[C@H](CO)NC(=O)[C@@H](NC(=O)[C@H](Cc1ccccc1)NC(=O)[C@@H](NC(=O)CNC(=O)[C@H](CCC(=O)O)NC(=O)C(C)(C)NC(=O)[C@@H](N)Cc1ccc(O)cc1)[C@@H](C)O)[C@@H](C)O)[C@@H](C)CC)C(=O)N[C@@H](C)C(=O)N[C@@H](C)C(=O)N[C@@H](CCC(N)=O)C(=O)N[C@@H](CCC(=O)O)C(=O)N[C@@H](Cc1ccccc1)C(=O)N[C@H](C(=O)N[C@@H](CC(N)=O)C(=O)N[C@@H](Cc1c[nH]c2ccccc12)C(=O)N[C@@H](CC(C)C)C(=O)N[C@H](C(=O)N[C@@H](C)C(=O)NCC(=O)NCC(=O)N1CCC[C@H]1C(=O)N[C@@H](CO)C(=O)N[C@@H](CO)C(=O)NCC(=O)N[C@@H](C)C(=O)N1CCC[C@H]1C(=O)N1CCC[C@H]1C(=O)N1CCC[C@H]1C(=O)N[C@@H](CO)C(N)=O)[C@@H](C)CC)C(C)C) [Compound No. 80] | – | – | 0.008 | 0.008
Y[Aib]EGTFTSDVSSYLEEEAAKEFIAWLVRGGPSSGAPPPSK-NH2 (N-terminus assumed; SMILES CC[C@H](C)[C@H](NC(=O)[C@H](Cc1ccccc1)NC(=O)[C@H](CCC(=O)O)NC(=O)[C@H](CCCCN)NC(=O)[C@H](C)NC(=O)[C@H](C)NC(=O)[C@H](CCC(=O)O)NC(=O)[C@H](CCC(=O)O)NC(=O)[C@H](CCC(=O)O)NC(=O)[C@H](CC(C)C)NC(=O)[C@H](Cc1ccc(O)cc1)NC(=O)[C@H](CO)NC(=O)[C@H](CO)NC(=O)[C@@H](NC(=O)[C@H](CC(=O)O)NC(=O)[C@H](CO)NC(=O)[C@@H](NC(=O)[C@H](Cc1ccccc1)NC(=O)[C@@H](NC(=O)CNC(=O)[C@H](CCC(=O)O)NC(=O)C(C)(C)NC(=O)[C@@H](N)Cc1ccc(O)cc1)[C@@H](C)O)[C@@H](C)O)C(C)C)C(=O)N[C@@H](C)C(=O)N[C@@H](Cc1c[nH]c2ccccc12)C(=O)N[C@@H](CC(C)C)C(=O)N[C@H](C(=O)N[C@@H](CCCNC(=N)N)C(=O)NCC(=O)NCC(=O)N1CCC[C@H]1C(=O)N[C@@H](CO)C(=O)N[C@@H](CO)C(=O)NCC(=O)N[C@@H](C)C(=O)N1CCC[C@H]1C(=O)N1CCC[C@H]1C(=O)N1CCC[C@H]1C(=O)N[C@@H](CO)C(=O)N[C@@H](CCCCN)C(N)=O)C(C)C) [Compound No. 2] | – | – | 0.017 | 3.5
Y[Aib]EGTFTSDYSIYLDKIAAK([AEEA-AEEA-γGlu-C18‑OH])EFVNWLLAGGPSSGAPPPS-NH2 [Compound No. 60] | 0.2 | 0.02 | – | –
Y[Aib]EGTFTSDYSIYLEKIAAQEFVNWLIAGGPSSGAPPPSK([AEEA-AEEA-γGlu-C20‑OH])-NH2 [Compound No. 83] | 0.028 | 0.032 | – | –
